Data as given in patent publication US20240043820.

Key:
[1] = biological target: SpCas9 Mut 4110 N767E,Q771R,K772Q,K775D,R780K,Q844R,L847M,K848T,D850N,I852F,K913E,G915R,F916W,I917V,V922M (Streptococcus pyogenes) (UniProt Q99ZW2); assay: cell_activity; details: yeast survival assay; PAM not stated
[2] = biological target: SpCas9 Mut 2.2 (TurboCas9) V842L,Q844R,F846Y,L847M,I852F (Streptococcus pyogenes) (UniProt Q99ZW2); assay: cell_activity; details: HEK293T; 5% alleles unedited vs 36% for WT; PAM not stated

Substance	activity (fold vs WT SpCas9) [1]	activity (fold vs WT SpCas9) [2]
ADE2 gRNA ; ADE2 target site	2	–
HIS3 gRNA ; HIS3 target site	3.9	–
VEGFA gRNA ; VEGFA target site	–	1.5
